Measurements taken from patent publication US20040077572.

Tested on: Sleeping Beauty transposase SB10 (synthetic (reconstructed salmonid))
Test: cell_activity

Question: With Lo(AAG) transposon as the substance, how does the activity (relative excision) read?
Answer: Its activity is 11%.

Question: Which activity (relative excision, transposition 101%) does the source give for LoLi-LiLo transposon here?
Answer: The activity was 95%.

Question: How did the activity (relative excision, transposition 45%) turn out when LoLo-RiRo transposon was run?
Answer: Its activity is 46%.

Question: Which activity (transposition reduced nearly 85%) does the source give for LoLo-RoRo transposon here?
Answer: Its activity is 15%.

Question: How did the activity (relative excision, transposition 29%) turn out when RoRi-RiRo transposon was run?
Answer: The activity was 43%.

Question: Which activity (relative transposition in HeLa) does the source give for “TANNNNCAGTTGAAGTCGGAAGTTTACATACACTTAAG (double strand) [TAN4Lo transposon]” here?
Answer: Its activity is 30%.

Question: How did the activity (just under four-fold over pT/SV40neo) turn out when pT2/SV40Neo transposon was run?
Answer: Its activity is 4 fold.
